Test results from article doi:10.1101/2021.11.20.466133 (bioRxiv, 2021).

Molecular target: the molecule itself
Assay: SEC-MALS

B1: Mycobacterium smegmatis c-di-AMP hydrolase (phosphodiesterase) MsPDE (enzyme)
chain: MPVTTTDPKTGLLTGPDAQIAGARVDARGAADLLTAASSVSVICHVYPDADTIGAGLALAQVLAASGKHVEVSFATPAQLPESLQSLPGGHLLVAPEAMRRDADLVVTVDIPSINRLGALSGLAGPGREVLVIDHHASNQLFGTANYIDPSADSTTMLVAELLDAWGKPIDEKVAHCLYAGLTTDTGSFRWATARAHRLAARLVELGVDNASISRTLLDTHPFAWLPMLSRVLATARLLPDALDGRGFVYAVVPHDEWSEARPEEVESIVDIVRTTQQAEVAAVFKEIEPMHWSVSMRAKSVNLASVASAFGGGGHPHAAGYSATGSADDVVQALARALG
**Q.** Which “stoichiometry N” value does the source give for B1 here?
**A.** 2
